According to patent publication US20210221894A1 (DRAGONFLY THERAPEUTICS, published 2021):

Tests used:
[1] = molecular target: T1, extracellular domain (ECD) of human DLL3 (AdipoGen Life Sciences) (human, UniProt Q9NYJ7 27-492); assay: SPR (Biacore 8K), 37 C, antibody captured on anti-mouse Fc; same values as in Table 36
T1 construct: Bought and further purified by size exclusion chromatography; also called hDLL3 ECD; DLL3 ECD
T1 sequence: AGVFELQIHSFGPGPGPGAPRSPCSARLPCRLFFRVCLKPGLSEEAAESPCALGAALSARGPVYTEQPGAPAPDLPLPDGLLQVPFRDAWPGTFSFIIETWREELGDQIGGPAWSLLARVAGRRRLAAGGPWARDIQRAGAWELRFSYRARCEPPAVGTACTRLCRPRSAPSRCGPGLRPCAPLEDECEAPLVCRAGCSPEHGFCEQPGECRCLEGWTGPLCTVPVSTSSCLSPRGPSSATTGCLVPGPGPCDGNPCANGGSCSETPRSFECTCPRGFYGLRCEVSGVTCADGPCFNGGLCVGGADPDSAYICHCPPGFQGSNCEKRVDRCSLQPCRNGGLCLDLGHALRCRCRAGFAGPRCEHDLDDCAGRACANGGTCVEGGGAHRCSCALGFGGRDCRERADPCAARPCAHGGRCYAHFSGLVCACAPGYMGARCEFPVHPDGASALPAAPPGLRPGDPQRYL
Source text: (§1) The binding kinetics of different anti-DLL3 antibodies to recombinant proteins of different domains of human DLL3 were studied by surface plasmon resonance (SPR) using a Biacore™ 8K instrument. These anti-DLL3 antibodies were produced from mouse hybridomas, and each included a heavy chain variable region and light chain variable region described herein. Briefly, antibodies recognizing human IgG Fc and antibodies recognizing mouse IgG Fc were immobilized on different channels of a Biacore™ 8K chip to allow simultaneous analysis of human and murine anti-DLL3 antibodies. Murine anti-DLL3 antibodies were captured on the anti-mouse Fc channel of the Biacore chip. The human anti-DLL3 antibody from Stemcentrx (San Francisco, Calif.) was used as a control and was captured onto anti-human Fc channel of the Biacore™ chip. Different concentrations of DLL3 ECD, DLL3 N-terminal domain, EGF2-6, EGF3-6, EGF4-6, or EGF5-6 domains of DLL3 were injected. Experiments were performed at 37° C. Biacore™ 8K evaluation software was used for all data analysis. To obtain kinetic rate constants double-referenced data were fit to a 1:1 interaction model using Biacore™ 8K Evaluation software (GE Healthcare, Marlborough, Mass.). The equilibrium binding constant KD was determined by the ratio of binding rate constants kd/kₐ.
(§2) Table 36 lists the calculated binding kinetics (KD). […]

[2] = molecular target: T2, human DLL3-His (human, UniProt Q9NYJ7 27-492); assay: SPR (Biacore 8K), 37 C, m5E7 captured on anti-mouse Fc, DLL3-His 0.411-300 nM injected, 1:1 fit
T2 construct: also called hDLL3
T2 sequence: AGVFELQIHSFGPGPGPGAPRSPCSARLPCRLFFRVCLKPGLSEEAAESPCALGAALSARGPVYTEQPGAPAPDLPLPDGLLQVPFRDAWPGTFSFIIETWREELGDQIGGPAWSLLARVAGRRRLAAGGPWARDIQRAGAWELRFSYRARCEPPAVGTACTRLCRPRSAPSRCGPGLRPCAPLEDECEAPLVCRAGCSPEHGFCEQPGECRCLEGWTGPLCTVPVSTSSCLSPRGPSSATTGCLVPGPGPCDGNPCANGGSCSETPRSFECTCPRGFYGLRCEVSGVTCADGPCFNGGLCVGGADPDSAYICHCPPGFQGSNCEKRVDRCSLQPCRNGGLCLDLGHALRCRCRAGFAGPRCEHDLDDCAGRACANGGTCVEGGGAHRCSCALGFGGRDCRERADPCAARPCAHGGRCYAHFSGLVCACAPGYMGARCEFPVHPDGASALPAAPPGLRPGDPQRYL
Source text: The kinetics of binding of different humanized variants and parental murine 5E7 antibody to human DLL3-His was studied by Surface Plasmon Resonance using a Biacore 8K instrument. Briefly, anti-hFc and anti-mFc IgG proteins were covalently immobilized onto different channels of CMS chip to allow simultaneous analysis of human and murine antibodies. m5E7 was captured on the anti-mouse Fc channel and humanized variants were captured on the anti-human Fc channel at a desired capture level of […] in HBS-EP+ buffer supplemented with 0.1% BSA. Three buffer blanks and human DLL3-His (analyte) at concentrations 0.411-300 nM (in three fold dilutions) were injected over the surface with captured murine or humanized 5E7 for 300 second association time and let dissociate for 600 second at a flow rate of 30 μL/min. The surfaces were subjected to regeneration with three 20-second pulses of 10 mM glycine pH 1.70 at a flow rate of 100 μL/min between every concentration of analyte. The experiment was conducted at 37° C. Data were double referenced and a 1:1 fit model was applied to the sensorgrams in the Biacore Insight Evaluation software.
The kinetic parameters of human DLL3-His binding to murine and humanized variants of 5E7 antibody variants were calculated and shown in Table 39.

[3] = molecular target: T3, recombinant human DLL1 (human, UniProt O00548 18-540, limits assumed); assay: ELISA, plate-bound recombinant human DLL1 (1 µg/mL), anti-mouse IgG-HRP/TMB, % of positive control max
T3 sequence (looked up): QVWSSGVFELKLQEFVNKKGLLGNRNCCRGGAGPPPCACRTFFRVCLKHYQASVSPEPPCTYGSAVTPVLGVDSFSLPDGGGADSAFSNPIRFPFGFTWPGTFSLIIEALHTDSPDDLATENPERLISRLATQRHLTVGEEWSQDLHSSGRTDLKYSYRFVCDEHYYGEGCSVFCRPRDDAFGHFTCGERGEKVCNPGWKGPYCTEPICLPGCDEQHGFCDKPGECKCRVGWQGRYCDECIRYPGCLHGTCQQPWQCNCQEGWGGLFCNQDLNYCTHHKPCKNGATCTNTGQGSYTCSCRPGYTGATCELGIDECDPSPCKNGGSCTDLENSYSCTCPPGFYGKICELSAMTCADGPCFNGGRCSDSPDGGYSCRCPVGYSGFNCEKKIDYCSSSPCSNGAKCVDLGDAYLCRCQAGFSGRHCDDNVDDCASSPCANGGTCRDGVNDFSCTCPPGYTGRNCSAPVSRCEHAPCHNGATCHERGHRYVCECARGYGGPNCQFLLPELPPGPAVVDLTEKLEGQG
Outline: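 Binding read by anti-mouse IgG-HRP with TMB substrate against wells coated with recombinant human DLL1 (1 μg/ml) or DLL4 (0.5 μg/ml) to test cross-reactivity of anti-DLL3 antibodies. Signals normalized to the corresponding positive control antibody.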

[4] = molecular target: T1, extracellular domain (ECD) of human …; assay: SPR (Biacore 8K), 37 C, antibody captured on anti-mouse Fc; same values as in Table 36; 37 C; hDLL3 ECD construct
Source text: as §1, §2

Kd [1]: 203 pM
koff [1]: 6.47e-05 s⁻¹
Kd [2]: 1220 pM
koff [2]: 0.00145 s⁻¹
kon [2]: 1.19e+06 M⁻¹ s⁻¹
binding result [3]: no binding
kon [4]: 319000 M⁻¹ s⁻¹
B1: murine anti-DLL3 antibody clone 5E7 (antibody, V domains shown)
VH: EVQLQQSGAELVRPGASVKLSCTASGFNIKDDYIHWVKQWPEQGLEWIGWIDSENGDTEYASKFQGKATMTADTSSNTAYLQLSGLTSEDTAVYYCTTSSYYSYDLFVYWGQGTLVTVSA
VL: DVLMTQTPLTLSVPIGQPASISCKSSQSLLHSNGKTYLNWLLQRPGQSPKLLIYLVSKLESGVPDRFSGSGSGTDFTLKISRVEAEDLGVYYCLQTTHLYTFGGGTKLEIK
notes: Murine antibody produced from a mouse hybridoma, captured on anti-mouse Fc in SPR; also called m5E7; murine 5E7
